Experiments:
[1] = target: BRD4-bromo1 (amino acids 54–168) (UniProt O60885); test: ITC; 3 mM H2A.Z peptides titrated into 0.3 mM bromodomains; 25 °C; 20 mM Hepes-Na pH 7.5, 100 mM NaCl; One Set of Binding Sites model
[2] = target: BRD4-bromo2 domain (amino acids 351–457) (UniProt O60885); test: as above

di-acetylated H2A.Z (1–15) K4acK7ac peptide (from UniProt P0C0S5 2-16)
Kd [1]: 4810 µM | Kd [2]: 820 µM

tri-acetylated H2A.Z (1–15) K4acK7acK11ac peptide (from UniProt P0C0S5 2-16)
Kd [1]: 2270 µM | Kd [2]: 600 µM
